Results: article PMC10069166 (Heliyon, 2023)
Read-outs that look alike come from different tables or passages of the source.

B1: 80R_5 antibody (antibody, V domains shown)
VH: EVQLVQSGGGVVQPGKSLRLSCKASGFAFSNYAMHWVRQAPGKGLEWVAVISYDGSYKYYADSVKGRFTISRDNSKNTLYLQMNSLRAEDTAVYYCARDRSYYLDYWGQGTLVTVSS
VL: TTLTQSPATLSLSPGERATLSCKASEDIGTALAWYQQKPGQAPRPLIFDGAILAPGIPDRFSGSGSGTDFTLTISRLEPEDFAVYYCHNVYSWPPTFGQGTKVEVK
B2: 80R_8 antibody (antibody, V domains shown)
VH: EVQLVQSGGGVVQPGKSLRLSCVASGFDFKNYAMHWVRQAPGKGLEWVAVISYDGKYKYYADSVKGRFTISRDNSKNTLYLQMNSLRAEDTAVYYCARDRSYYLDYWGQGTLVTVSS
VL: TTLTQSPATLSLSPGERATLSCIASQDIGTNLAWYQQKPGQAPRPLIFDGAILAPGIPDRFSGSGAGTDFTLTISRLEPEDFAVYYCQQTYNWPPTFGQGTKVEVK
B3: 80R_10 antibody (antibody, V domains shown)
VH: EVQLVQSGGGVVQPGKSLRLSCVASGFDFKSYAMHWVRQAPGKGLEWVAVISYDGRYKYYADSVKGRFTISRDNSKNTLYLQMNSLRAEDTAVYYCARDRSYYLDYWGQGTLVTVSS
VL: TTLTQSPATLSLSPGERATLSCHASEDIGTALAWYQQKPGQAPRPLIFYAAQLAPGIPDRFSGSGSGTDFTLTISRLEPEDFAVYYCFQSWTLPLTFGQGTKVEVK
B4: 80R_18 antibody (antibody, V domains shown)
VH: EVQLVQSGGGVVQPGKSLRLSCVASGFNFSEYAMHWVRQAPGKGLEWVAVISYDGSYKYYADSVKGRFTISRDNSKNTLYLQMNSLRAEDTAVYYCARDNAYYLDYWGQGTLVTVSS
VL: TTLTQSPATLSLSPGERATLSCQASEDIGTNLAWYQQKPGQAPRPLIFDAAQLAPGIPDRFSGSGSGTQFTLTISRLEPEDFAVYYCQQIYNWPPSFGQGTKVEVK
B5: 80R_19 antibody (antibody, V domains shown)
VH: EVQLVQSGGGVVQPGKSLRLSCVASGFDFKSYAMHWVRQAPGKGLEWVAVISYDGSYKYYADSVKGRFTISRDNSKNTLYLQMNSLRAEDTAVYYCARDNAYYLDYWGQGTLVTVSS
VL: TTLTQSPATLSLSPGERATLSCHASEDIGTNLAWYQQKPGQAPRPLIFDAAQLAPGIPDRFSGSGSGTDFTLTISRLEPEDFAVYYCMQIHNWPPSFGQGTKVEVK
B6: 80R_21 antibody (antibody, V domains shown)
VH: EVQLVQSGGGVVQPGKSLRLSCVASGFDFSKYAMHWVRQAPGKGLEWVAVISYDGSYKYYADSVKGRFTISRDNSKNTLYLQMNSLRAEDTAVYYCARDNAYYLDYWGQGTLVTVSS
VL: TTLTQSPATLSLSPGERATLSCKASEDIGTNLAWYQQKPGQAPRPLIFDAAILAPGIPDRFSGSGSGTDFTLTISRLEPEDFAVYYCMQIYNWPPSFGQGTKVEVK
B7: 80R_22 antibody (antibody, V domains shown)
VH: EVQLVQSGGGVVQPGKSLRLSCVASGFDFKSYAMHWVRQAPGKGLEWVAVISYDGSYKYYADSVKGRFTISRDNSKNTLYLQMNSLRAEDTAVYYCARDNAYYLDYWGQGTLVTVSS
VL: TTLTQSPATLSLSPGERATLSCHASEDIGTALAWYQQKPGQAPRPLIFYAAQLAPGIPDRFSGSGSGTDFTLTISRLEPEDFAVYYCAQYWSLPPTFGQGTKVEVK
B8: 80R_23 antibody (antibody, V domains shown)
VH: EVQLVQSGGGVVQPGKSLRLSCVASGFDFKSYAMHWVRQAPGKGLEWVAVISYDGSYKYYADSVKGRFTISRDNSKNTLYLQMNSLRAEDTAVYYCARDNAYYLDYWGQGTLVTVSS
VL: TTLTQSPATLSLSPGERATLSCHASEDIGTNLAWYQQKPGQAPRPLIFDGAQLAPGIPDRFSGSGSGTDFTLTISRLEPEDFAVYYCQQIYNWPPSFGQGTKVEVK
B9: 80R_6 antibody (antibody, V domains shown)
VH: EVQLVQSGGGVVQPGKSLRLSCTASGFNFSEYAMHWVRQAPGKGLEWVAVISYDGSYKYYADSVKGRFTISRDNSKNTLYLQMNSLRAEDTAVYYCARDRSYYLDYWGQGTLVTVSS
VL: TTLTQSPATLSLSPGERATLSCKASEDIGSNLAWYQQKPGQAPRPLIFDAAQLAPGIPDRFSGSGSGTDFTLTISRLEPEDFAVYYCFQIYTWPPTFGQGTKVEVK
B10: 80R_7 antibody (antibody, V domains shown)
VH: EVQLVQSGGGVVQPGKSLRLSCQASGFDFKSYAMHWVRQAPGKGLEWVAVISYDGSIKHYADSVKGRFTISRDNSKNTLYLQMNSLRAEDTAVYYCARDRSYYLDYWGQGTLVTVSS
VL: TTLTQSPATLSLSPGERATLSCIASQDIGTALAWYQQKPGQAPRPLIFDGAILAPGIPDRFSGSGAGTDFTLTISRLEPEDFAVYYCMQTWTLPVTFGQGTKVEVK
B11: 80R antibody (antibody, V domains shown)
VH: EVQLVQSGGGVVQPGKSLRLSCAASGFAFSSYAMHWVRQAPGKGLEWVAVISYDGSNKYYADSVKGRFTISRDNSKNTLYLQMNSLRAEDTAVYYCARDRSYYLDYWGQGTLVTVSS
VL: TTLTQSPATLSLSPGERATLSCRASQSVRSNLAWYQQKPGQAPRPLIYDASTRATGIPDRFSGSGSGTDFTLTISRLEPEDFAVYYCQQRSNWPPTFGQGTKVEVK

Legend:
Experiment in all cases: BLI
[1] = molecular target: T1, SARS-CoV-2 B.1.617.2 Spike S1+S2 trimer (ECD, His tag) (SARS-CoV-2, Delta (B.1.617.2), L452R | T478K)
[2] = molecular target: SARS-CoV-2 Spike Trimer, His Tag (BA.5/Omicron) (SARS-CoV-2, Omicron BA.5, strain)
[3] = molecular target: Wild-type SARS-CoV-2 full length spike trimer (SARS-CoV-2, wild type (Wuhan-Hu-1), UniProt P0DTC2)
[4] = molecular target: Wuhan S6P SARS-CoV-2 full length spike trimer (SARS-CoV-2, Wuhan, UniProt P0DTC2, stabilised)
[5] = molecular target: T1, SARS-CoV-2 B.1.617.2 Spike S1+S2 trimer …; remark: listed apart in the source

| Binder | Kd [3] | other results |
| --- | --- | --- |
| B1 | 0.468 nM | Kd [1]: 0.441 nM; Kd [2]: 1.12 nM; Kd [4]: < 0.001 nM; Kd [5]: 0.443 nM |
| B2 | 114 nM |  |
| B3 | 1.82 nM |  |
| B4 | 2.68 nM |  |
| B5 | 0.845 nM |  |
| B6 | 3.1 nM |  |
| B7 | 1.39 nM |  |
| B8 | 0.858 nM | Kd [5]: 0.625 nM |
| B9 | 4.16 nM |  |
| B10 | 2.85 nM |  |
| B11 |  | binding result [3]: no binding |
